The values that follow come from patent US20050118638A1.

In assay [1] the target is TSH receptor (detergent solubilised TSH receptor preparation) (UniProt P16473). The assay is described as follows: solubilised TSHR, PEG method; IgG 100 µg/ml; competitor 125I-16E5 Fab.
Assay [2] shares this target. The assay is described as follows: 125I-TSH, TSHR coated tubes; 20 µg/ml.
Assay [3] has the same target. Nature of the assay: 125I-TSH, TSHR coated tubes; 200 µg/ml.

Chain of TSH receptor (detergent solubilised TSH receptor preparation) (P16473 21-764 limits assumed): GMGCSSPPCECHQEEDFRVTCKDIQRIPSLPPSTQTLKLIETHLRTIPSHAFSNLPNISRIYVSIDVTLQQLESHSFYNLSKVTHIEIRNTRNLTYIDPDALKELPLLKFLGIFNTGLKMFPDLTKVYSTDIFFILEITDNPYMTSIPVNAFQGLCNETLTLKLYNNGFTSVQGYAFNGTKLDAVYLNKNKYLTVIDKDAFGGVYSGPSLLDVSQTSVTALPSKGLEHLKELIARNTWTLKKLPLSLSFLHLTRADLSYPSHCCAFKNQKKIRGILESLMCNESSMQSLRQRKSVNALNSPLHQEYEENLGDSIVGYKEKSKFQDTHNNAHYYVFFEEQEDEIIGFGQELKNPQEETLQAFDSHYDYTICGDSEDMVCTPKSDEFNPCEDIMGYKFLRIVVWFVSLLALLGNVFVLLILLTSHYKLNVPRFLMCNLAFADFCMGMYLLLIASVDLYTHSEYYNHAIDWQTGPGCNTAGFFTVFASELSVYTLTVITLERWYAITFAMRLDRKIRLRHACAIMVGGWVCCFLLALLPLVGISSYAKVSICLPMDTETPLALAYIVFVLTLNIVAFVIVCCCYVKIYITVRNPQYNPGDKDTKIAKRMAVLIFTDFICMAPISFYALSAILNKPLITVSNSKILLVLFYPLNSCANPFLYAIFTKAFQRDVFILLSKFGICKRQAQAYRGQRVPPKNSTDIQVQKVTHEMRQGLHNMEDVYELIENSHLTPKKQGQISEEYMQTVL

B1: 3B3 IgG (antibody, V domains shown)
VH: DVQLQQPGAELVKPGASVKLSCTTSGVNIKDTYMHWMKQRPEQGLEWIGRIDPANGNTKYDPKFRGKATITADTSSNTVYVQLRSLTSEDTAVYYCAYDGYWGQGTLVTVSA
VL: NIVMTQTPASLAVSLGQRATISCRASESVDSYGNNFMHWYQQKPGQSPRLLIYRASNLESGIPARFSGSGSRTDFTLTTNPVEADDVATYYCQQSHKDPLTFGAGTKLELK
B1 showed a % inhibition of 125I-16E5 Fab binding in assay [1] of 8.8%. Moreover, the figures for the % inhibition of TSH binding in assay [2] and in assay [3] were 6.1% and 30.7%, respectively.
